Experiments:
HeLa Kyoto [1] = test: melting temperature (median over replicates), in situ; higher = more thermally stable
HeLa Kyoto [2] = test: solubility change mitosis vs G1/S (difference of NP-40 vs SDS log2 ratios) (log2 ratio difference); higher = more soluble in mitosis
HeLa Kyoto [3] = test: solubility in G1/S (NP-40 vs SDS abundance) (log2 ratio); higher = more soluble; conditions: cell cycle stage: G1/S
HeLa Kyoto [4] = test: thermal stability score vs G1/S (z-score of summed log2 fold changes over temperatures); higher = more thermally stable than in G1/S
[5] = cell cycle stage: early G1 (4.5 h after nocodazole release)
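For melting temperature (median over replicates), in situ in this document: HeLa Kyoto cells synchronized by double thymidine or nocodazole block, proteins quantified by TMT10plex mass spectrometry, three independent biological replicates.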
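For solubility change mitosis vs G1/S (difference of NP-40 vs SDS log2 ratios) in this document: synchronized HeLa Kyoto cells (double thymidine block for G1/S, nocodazole release for mitosis), protein amounts in NP-40 versus SDS lysates quantified by mass spectrometry, three biological replicates.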
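For solubility in G1/S (NP-40 vs SDS abundance) in this document: HeLa Kyoto cells arrested at G1/S by double thymidine block, proteins quantified by TMT10plex mass spectrometry in mild NP-40 versus SDS extracts, three biological replicates.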
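For thermal stability score vs G1/S (z-score of summed log2 fold changes over temperatures) in this document: synchronized HeLa Kyoto cells, proteins quantified by TMT10plex mass spectrometry, three biological replicates, mitosis taken 0.5 h after nocodazole release, G1/S directly after double thymidine block.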

Row | Sequence | melting temperature (HeLa Kyoto [1]; cell cycle stage: G1/S) [°C] | melting temperature (HeLa Kyoto [1]; cell cycle stage: mitosis) [°C] | solubility change mitosis (log2) (HeLa Kyoto [2]) | solubility in G1/S (log2) (HeLa Kyoto [3]) | thermal stability score (HeLa Kyoto [4]; [5]) | thermal stability score (HeLa Kyoto [4]; cell cycle stage: mitosis)
1 | MDDREDLVYQAKLAEQAERYDEMVESMKKVAGMDVELTVEERNLLSVAYKNVIGARRASWRIISSIEQKEENKGGEDKLKMIREYRQMVETELKLICCDILDVLDKHLIPAANTGESKVFYYKMKGDYHRYLAEFATGNDRKEAAENSLVAYKAASDIAMTELPPTHPIRLGLALNFSVFYYEILNSPDRACRLAKAAFDDAIAELDTLSEESYKDSTLIMQLLRDNLTLWTSDMQGDGEEQNKEALQDVEDENQ [YWHAE] | 55.3 | 55.8 | 0.181 | 0.336 | -1.18 | -2.71
2 | MDEAGSSASGGGFRPGVDSLDEPPNSRIFLVISKYTPESVLRERFSPFGDIQDIWVVRDKHTKESKGIAFVKFARSSQACRAMEEMHGQCLGPNDTKPIKVFIAQSRSSGSHRDVEDEELTRIFVMIPKSYTEEDLREKFKVYGDIEYCSIIKNKVTGESKGLGYVRYLKPSQAAQAIENCDRSFRAILAEPKNKASESSEQDYYSNMRQEALGHEPRVNMFPFVGEQQSEFSSFDKNDSRGQEAISKRLSVVSRVPFTEEQLFSIFDIVPGLEYCEVQRDPYSNYGHGVVQYFNVASAIYAKYKLHGFQYPPGNRIGVSFIDDGSNATDLLRKMATQMVAAQLASMVWNNPSQQQFMQFGGSSGSQLPQIQTDVVLPSCKKKAPAETPVKERLFIVFNPHPLPLDVLEDIFCRFGNLIEVYLVSGKNVGYAKYADRISANDAIATLHGKILNGVRLKVMLADSPREESNKRQRTY [RBM45] | 48.4 | 50 | 0.448 | 0.000113 | 0.337 | 0.251
3 | MDELAGGGGGGPGMAAPPRQQQGPGGNLGLSPGGNGAAGGGGPPASEGAGPAAGPELSRPQQYTIPGILHYIQHEWARFEMERAHWEVERAELQARIAFLQGERKGQENLKKDLVRRIKMLEYALKQERAKYHKLKYGTELNQGDLKMPTFESEETKDTEAPTAPQNSQLTWKQGRQLLRQYLQEVGYTDTILDVRSQRVRSLLGLSNSEPNGSVETKNLEQILNGGESPKQKGQEIKRSSGDVLETFNFLENADDSDEDEENDMIEGIPEGKDKHRMNKHKIGNEGLAADLTDDPDTEEALKEFDFLVTAEDGEGAGEARSSGDGTEWDKDDLSPTAEVWDVDQGLISKLKEQYKKERKGKKGVKRANRTKLYDMIADLGDDELPHIPSGIINQSRSASTRMTDHEGARAEEAEPITFPSGGGKSFIMGSDDVLLSVLGLGDLADLTVTNDADYSYDLPANKDAFRKTWNPKYTLRSHFDGVRALAFHPVEPVLVTASEDHTLKLWNLQKTVPAKKSASLDVEPIYTFRAHIGPVLSLAISSNGEQCFSGGIDATIQWWNMPSPSVDPYDTYEPNVLAGTLVGHTDAVWGLAYSGIKNQLLSCSADGTVRLWNPQEKLPCICTYNGDKKHGIPTSVDFIGCDPAHMVTSFNTGSAVIYDLETSQSLVILSSQVDSGLQSNNHINRVVSHPTLPVTITAHEDRHIKFFDNKTGKMIHSMVAHLDAVTSLAVDPNGIYLMSGSHDCSIRLWNLDSKTCVQEITAHRKKLDESIYDVAFHSSKAYIASAGADALAKVFV [STRN3] | 52.1 | 52.4 | -0.0757 | -0.0799 | -0.00707 | -0.722
4 | MDEQAGPGVFFSNNHPGAGGAKGLGPLAEAAAAGDGAAAAGAARAQYSLPGILHFLQHEWARFEVERAQWEVERAELQAQIAFLQGERKGQENLKKDLVRRIKMLEYALKQERAKYHKLKYGTELNQGDMKPPSYDSDEGNETEVQPQQNSQLMWKQGRQLLRQYLQEVGYTDTILDVKSKRVRALLGFSSDVTDREDDKNQDSVVNGTEAEVKETAMIAKSELTDSASVLDNFKFLESAAADFSDEDEDDDVDGREKSVIDTSTIVRKKALPDSGEDRDTKEALKEFDFLVTSEEGDNESRSAGDGTDWEKEDQCLMPEAWNVDQGVITKLKEQYKKERKGKKGVKRPNRSKLQDMLANLRDVDELPSLQPSVGSPSRPSSSRLPEHEINRADEVEALTFPPSSGKSFIMGADEALESELGLGELAGLTVANEADSLTYDIANNKDALRKTWNPKFTLRSHFDGIRALAFHPIEPVLITASEDHTLKMWNLQKTAPAKKSTSLDVEPIYTFRAHKGPVLCVVMSSNGEQCYSGGTDGLIQGWNTTNPNIDPYDSYDPSVLRGPLLGHTDAVWGLAYSAAHQRLLSCSADGTLRLWNTTEVAPALSVFNDTKELGIPASVDLVSSDPSHMVASFSKGYTSIFNMETQQRILTLESNVDTTANSSCQINRVISHPTLPISITAHEDRHIKFYDNNTGKLIHSMVAHLEAVTSLAVDPNGLYLMSGSHDCSIRLWNLESKTCIQEFTAHRKKFEESIHDVAFHPSKCYIASAGADALAKVFV [STRN] | 52.4 | 52.3 | -0.134 | 0.0488 | 0.0936 | -0.463
5 | MDGKQGGMDGSKPAGPRDFPGIRLLSNPLMGDAVSDWSPMHEAAIHGHQLSLRNLISQGWAVNIITADHVSPLHEACLGGHLSCVKILLKHGAQVNGVTADWHTPLFNACVSGSWDCVNLLLQHGASVQPESDLASPIHEAARRGHVECVNSLIAYGGNIDHKISHLGTPLYLACENQQRACVKKLLESGADVNQGKGQDSPLHAVARTASEELACLLMDFGADTQAKNAEGKRPVELVPPESPLAQLFLEREGPPSLMQLCRLRIRKCFGIQQHHKITKLVLPEDLKQFLLHL [ASB9] | 55 | 54.2 | -0.182 | 0.762 | -0.645 | -1.33
